{
  "source": "paper PMC4628001",
  "about": "“Hybrid PET/optical imaging of integrin αVβ3 receptor expression using a ^64Cu-labeled streptavidin/biotin-based dimeric RGD peptide” (EJNMMI Research, 2015)",
  "target": "T1, integrin αVβ3 (Homo sapiens, UniProt P05106+P06756)",
  "T1 construct": "U87MG cells, which are known to express high levels of integrin αVβ3; endogenous in cells; host or cells: U87MG cells",
  "T1 sequence (P06756 31-889 limits assumed)": "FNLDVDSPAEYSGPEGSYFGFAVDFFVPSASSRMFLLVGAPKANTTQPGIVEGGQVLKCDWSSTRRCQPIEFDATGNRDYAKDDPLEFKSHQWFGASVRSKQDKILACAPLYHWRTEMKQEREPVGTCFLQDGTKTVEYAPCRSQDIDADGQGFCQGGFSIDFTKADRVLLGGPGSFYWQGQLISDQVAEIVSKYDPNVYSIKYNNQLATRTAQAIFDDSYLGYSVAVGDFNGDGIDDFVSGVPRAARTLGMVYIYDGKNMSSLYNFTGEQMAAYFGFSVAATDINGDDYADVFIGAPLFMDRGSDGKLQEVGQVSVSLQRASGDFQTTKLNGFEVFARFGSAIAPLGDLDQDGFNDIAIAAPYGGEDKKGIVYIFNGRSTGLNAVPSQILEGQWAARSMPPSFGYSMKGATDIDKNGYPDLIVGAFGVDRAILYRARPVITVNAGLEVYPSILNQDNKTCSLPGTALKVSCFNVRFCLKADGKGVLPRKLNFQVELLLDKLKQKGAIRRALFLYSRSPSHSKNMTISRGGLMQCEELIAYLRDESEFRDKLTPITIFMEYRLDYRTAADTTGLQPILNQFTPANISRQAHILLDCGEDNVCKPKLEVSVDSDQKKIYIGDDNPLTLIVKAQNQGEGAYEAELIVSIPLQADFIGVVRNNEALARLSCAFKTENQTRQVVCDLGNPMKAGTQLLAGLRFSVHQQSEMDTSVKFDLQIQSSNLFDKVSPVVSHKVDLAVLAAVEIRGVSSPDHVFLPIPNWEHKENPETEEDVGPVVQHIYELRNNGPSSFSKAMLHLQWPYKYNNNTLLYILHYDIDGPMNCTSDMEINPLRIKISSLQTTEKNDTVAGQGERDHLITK",
  "T1 sequence (P06756 891-1048 partner limits assumed)": "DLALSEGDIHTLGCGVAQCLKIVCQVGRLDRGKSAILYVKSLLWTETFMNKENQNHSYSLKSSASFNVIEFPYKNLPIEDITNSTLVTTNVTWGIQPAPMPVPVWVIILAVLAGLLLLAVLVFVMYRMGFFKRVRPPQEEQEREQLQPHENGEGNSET",
  "T1 sequence (P05106 27-788)": "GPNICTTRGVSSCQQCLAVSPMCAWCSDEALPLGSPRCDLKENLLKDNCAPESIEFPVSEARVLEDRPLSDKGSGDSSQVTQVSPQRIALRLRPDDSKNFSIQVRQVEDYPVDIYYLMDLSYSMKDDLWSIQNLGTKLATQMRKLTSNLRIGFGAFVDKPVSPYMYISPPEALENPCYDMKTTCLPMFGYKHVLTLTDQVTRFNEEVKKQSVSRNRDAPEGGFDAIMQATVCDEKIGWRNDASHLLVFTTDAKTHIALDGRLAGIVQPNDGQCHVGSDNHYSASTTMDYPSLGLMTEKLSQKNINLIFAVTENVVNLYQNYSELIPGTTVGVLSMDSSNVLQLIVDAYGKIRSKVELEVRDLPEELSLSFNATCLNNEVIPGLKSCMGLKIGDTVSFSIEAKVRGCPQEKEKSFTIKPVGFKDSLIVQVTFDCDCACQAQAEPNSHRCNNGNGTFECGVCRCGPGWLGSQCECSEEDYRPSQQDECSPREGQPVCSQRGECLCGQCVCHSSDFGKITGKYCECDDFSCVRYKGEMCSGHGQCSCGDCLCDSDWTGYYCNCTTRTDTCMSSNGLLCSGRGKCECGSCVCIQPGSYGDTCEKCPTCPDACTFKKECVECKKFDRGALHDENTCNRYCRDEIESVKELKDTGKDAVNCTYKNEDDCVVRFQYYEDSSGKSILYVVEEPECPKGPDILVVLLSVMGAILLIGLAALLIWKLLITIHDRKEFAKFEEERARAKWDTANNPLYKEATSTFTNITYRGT",
  "assay": "Cell integrin receptor binding, U87MG cells, ^125I-RGDyK radioligand",
  "details": "displacement of ^125I-RGDyK, room temperature 1 h, pH 7.4 binding buffer, n = 3",
  "experimental": "The integrin αVβ3 receptor binding study was performed using a previously reported procedure with a slight modification. ^125I-RGDyK was used as the radioligand and prepared immediately before use. […] All experiments were performed in triplicate. IC50 values were determined using GraphPad Prism software 5.",
  "data": [
    {"substance": "DOTA-(AF)SAv/biotin-PEG-RGD2: unlabeled complex comprising DOTA-(AF)SAv and biotin-PEG-RGD2", "values": [
      {"measurement": "IC50", "result": "0.0121 ± 0.0042", "unit": "µM"}
    ]}
  ]
}
